Measurements as given in publication doi:10.1101/2020.02.27.968578.

Tests used:
EGFP [1] = molecular target: EGFP (UniProt P42212); assay: GFP fluorescence quenching titration; conditions: PBS, 5 mM MgCl2, pH 7.4, room temperature, 5 min; 50 nM GFP, excitation 480 nm
YFP = YFP (UniProt P42212); assay: cited; conditions: PBS, 5 mM MgCl2, pH 7.4, room temperature, 5 min; 50 nM GFP, excitation 480 nm; cited from earlier work
EGFP [2] = molecular target: EGFP (UniProt P42212); assay: cited; conditions: PBS, 5 mM MgCl2, pH 7.4, room temperature, 5 min; 50 nM GFP, excitation 480 nm; cited from earlier work
CFP = CFP (UniProt P42212); assay: cited; conditions: PBS, 5 mM MgCl2, pH 7.4, room temperature, 5 min; 50 nM GFP, excitation 480 nm; cited from earlier work

For “GGGAGCUUCUGGACUGCGAUGGGAGCACGAAACGUCGUGGCGCAAUUGGGUGGGGAAAGUCCUUAAAAGAGGGCCACCACAGAAGC [AP3 (GFP aptamer)]”, the Kd (EGFP [1]) is listed as 4 nM, the Kd (YFP) is listed as 10 nM and the Kd (EGFP [2]) is listed as 4 nM. The Kd (CFP) was 10 nM.
